Measured values from the nanobody polyreactivity screen of Harvey et al. (2022).

Assay: yeast display, Sf9 membrane polyspecificity reagent, FACS + sequencing; frameworks hold sequencing errors
In short: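 A nanobody's polyreactivity label depends on the gate it was sorted from. Yeast display cells were stained with 10% biotinylated, detergent-solubilized Sf9 membrane reagent for 1 hour at 4 °C, enriched on streptavidin microbeads and sorted by FACS. The low and high (top ~1%) gates were set on anti-HA fluorescence for expression and streptavidin fluorescence for reagent binding.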

Sequence: QVQLVESGGGLVQAGGSLRLTCAASGIIFKLYAMGWYRQAPGKEREFVATITKTGGRTYYADSVKGRFTISRDNAKNTVYLQMNSLKPEDTAVDYCAARRVNGKMYYWGQGTQVTVSS
- polyreactivity (PSR sort gate): high polyreactivity

Sequence: QVQLVESGGGLVQAGGSLRLSCAASGRIFMPYAMGWYRQARGKERELFAAITSTGGSTYYADSVKGRFTISRDNAKNTVYIQMNSQKPEDTAVYYCNARRGYQPHRRDYWGQGTQVTLSS
- polyreactivity (PSR sort gate): low polyreactivity

Sequence: QVQLVKSGGGLVQAGGSLRLSCAASGSTFRYYVMGWYRQAPGKERELVATISRGGITKYADSVKGRFTSSRDNAKNTVYLQMHSLKPEDTAVYYCNTRGSRQGKFDYWGQGTQVTVSS
- polyreactivity (PSR sort gate): high polyreactivity

Sequence: QVQLVESGGGLFQAGGSLRLSCAASGRIFGAYTMGWYRQAPGKERELVAAISDGGDTYYADSVKGRFTISRDNAKNTVYLQMNSLKPEDTAVYYCAADAPYYAYYWYPSSLGIYGYWGQGTQVTVSS
- polyreactivity (PSR sort gate): low polyreactivity

Sequence: QGQLVESGGGLVQAGGSLRLSCAASGSIVFYYGMGWYRQAPGKERELVAAITWSGDSPYDADSVKGRFTISRDNAKNTVYLQLNSLKPEDTAVYYCNADQTSYYYPGNYDYWGQGTQVTVSS
- polyreactivity (PSR sort gate): high polyreactivity

Sequence: QVQLVESGGGLVQAGGSLRLSCAASGFIFFTNTMGWYRQAPGKEWELVAAINSNGGRTYYADSVKGRFTISRDNAKNTVYLQMNSLKPEDTAVYYCAARSVGGVARLDYWGQGTQVTVSS
- polyreactivity (PSR sort gate): low polyreactivity

Sequence: QVQLVESGGGLVQAGGSLRLSCAASGSTFLWYAMGWYTQAPGKERELVATISGSGGSTYYADSVKGRFTISRDNAKNTVYLQMNSLKPEDTAGYYCAAGTLVQRSRWVTFSAYDGDYWGQGTQVTVSS
- polyreactivity (PSR sort gate): high polyreactivity

Sequence: QVQLVESGGGLVQAGGSLRLSCAASGSTFNLYAMGWYRQAPGKERELVASISRSGVSTYYADSVKGRFTISRDNAKNTVYLQMNSLKPEDTAVYYCAVDKVLYRLYTGMDYWGQGTQVTVSS
- polyreactivity (PSR sort gate): low polyreactivity

Sequence: QVQLVESGGGLVQAGGSLRLSCAASGRSFGVYAMGWYRQAPGKERELVAVISSGGSTTYADSVKGRFTISRDNAKNTVYLQMNSLKPEDTAVYYCAAVSYRRHFGPYNYWGQGTQVTVSS
- polyreactivity (PSR sort gate): low polyreactivity

Sequence: QVQLVESGGGLVQAGGSLRLSCAASGRIFVYNAMGWYRQAPGKERELVATISSGGSTNYADSVKGRFTISRDNAKNTVYLQMNSLKPEDTAVYYCAARFYVSNSRISARNYWGQGTQVTVSS
- polyreactivity (PSR sort gate): high polyreactivity

Sequence: QLQLVESGGGLVQAGGRLRLSSAASGRTFRYYAMGWYRQAAGKERELVASITSGGRTYYADSVKGRFTISRDNAKNTVYLQMNSLKPEDTAVYYCAADRFGIGGKRGNDYWGQGTQVTVSS
- polyreactivity (PSR sort gate): high polyreactivity

Sequence: QDQLVESGGGLVQAGGSLRLSCAASGFTFRAYTMGWYRQAPGKERELVAAITYSGGRTYYADSVKGRFTISRDNAKKTVNLQMNSLNPEDTAVYYCAKRGWALSEYDYWGQGTQVTVSS
- polyreactivity (PSR sort gate): high polyreactivity

Sequence: QDQLVESGVGLVQAGGSLRLSCASSGRIFDPYAMGWYRQAPGKERELVARITWRGGRTYYADSVKVRFTISLDNAKNTVYLQMNSLKPEDTAVFYCNADFYYRYYCAYDYWGQGTQVTVSS
- polyreactivity (PSR sort gate): high polyreactivity

Sequence: QVQLVESGGGLVQAGGSLRLSCAASGRTFDVYAMGWYRQAPGKERELVAAISWSGGGTYYADSVKGRFTISRDNAKNTVYLQLTSLNPADTAVYSCAAALTFALDPNRYTYSDYYYWGQGTQVTVSS
- polyreactivity (PSR sort gate): low polyreactivity

Sequence: QVQLQESGGGLVQAGGSLRLSCAASGSIFADVQMGWYRQAPGKERELVASINFRGTTSYYADSVKGRFTISRDNAKNTVYLQMSSLKPEETEVYYCAVGRSEGGDFAYWGQGTHVTVSS
- polyreactivity (PSR sort gate): low polyreactivity

Sequence: QVQLVESGGGLVQAGGSLRLSCAASGRTFKYYAMGWYRQAPGKERELVATISFRGGSTYYADSVKGRFTISRDNAKNTVYLQMNSLKPEDTSVYYCARRQWSRRPDDYWGQGTQVTVSS
- polyreactivity (PSR sort gate): high polyreactivity

Sequence: QVQLVESGGGLVQAGGSLRLSCAASGIIFYEYVMGWYRPAPGKERELVAAINRSGGSTYYADSVKGRFTISRDNAKNTVYLQMNSLKPEDTAVYYCAASSTYDGRKYYYWGQGTQVNVSS
- polyreactivity (PSR sort gate): high polyreactivity

Sequence: QVQLVESGGGLVQAGGSLRLSCDDSGRTFYPYAMGRYRHAPGKERELVAAISYRGGSTYYADSVKGRFTISRDNAKNTVYLQMNCLKPEDRAVYYCAKRGYASGSKWDYGYWGQGTQLTVSS
- polyreactivity (PSR sort gate): high polyreactivity

Sequence: QVQLVESVGGLVQAGGSLRLSCAASGGIFWVYAMGWYRQAPGKERELVASISWNGGSTNYADSVKGLFTISRDNAKNTVYLQMNSLKPEDTAVYYCAAEYWTSYADYRYDYWGQGTQVTVSS
- polyreactivity (PSR sort gate): low polyreactivity

Sequence: QVQLVESGGGLVQAGGSLRLSCAASGFTFFAYPMGWYRQAPGKERELVAGISRSGGRTYYADSVKGRFTISRDNAKNTVYLQMNSLKPEDTAVYYCNAVVRRSYLLEYDFCGQGTQVTVSS
- polyreactivity (PSR sort gate): high polyreactivity

Sequence: QVQLVESGGGLVQAGGSLRLSCAASGSTFIANAMGWYRKAPGKERELVAAISQSGDSTYYADSVKGRFTISRENAKNTVYLQMNSMKPEDTAVYYCAAEDVDGYEYWGQGTQVTVSS
- polyreactivity (PSR sort gate): high polyreactivity

Sequence: QVQLVESGGGLVQAGGSLRLSCAASGSNVHYMGGERQAPGKERELVAGISWSGGSTYYADSVMGRFTISRDNAKNTVYLQMNSLKPEDTAVDYCAADYYAHQDYRFDYWGQGTQVTVSS
- polyreactivity (PSR sort gate): low polyreactivity

Sequence: QVQLVESGGGLVQAGGSLRLSCAASGSIFQQYAMGWYRQAPGKERELVAAISYSGGTTYYADSVKGRFTISRDNAKNTVYLQMNSLKPEDTAVYYCAAYYPSGSYDYYWGQGTQVTVSS
- polyreactivity (PSR sort gate): low polyreactivity

Sequence: QVQLVESGGGLVQAGGSLRLSCAASGGTFRNYAMGWYRQAPGKERELVAAITTGTITNYADSVKGRFTISRDNAKNTVYLQMNSLKPEDTAVYYCNAGAFYSDPYDYWGQGTQLTVSS
- polyreactivity (PSR sort gate): low polyreactivity

Sequence: QVQLVESGGGLVQAGGSLRLSCAASGSIYTPNVMGWYRQAPGKERELVAAISQSGGSTFYADSVKGRFTISRDNAKNTVYLQMNSLKPEDTAVYYCATEYYGPVYDLDYDYWGQGTQVTVSS
- polyreactivity (PSR sort gate): low polyreactivity

Sequence: QVQLVESGGGLVQAGGSLRLSCAASGFIFDFYTIGWYRQAPGKEWELVAAITNGGSTYYADSVKGRFTISRVNAKNTVYLQMNSLKPEDTAVYYCAAYYRSRHHGYDSWGQGTQVTVSS
- polyreactivity (PSR sort gate): low polyreactivity

Sequence: QVQLVESGGGVVQAGGSLRLSCAASGRTFRRNAMGWYRQAPGKERELVAAITSSGGSTYYADSVKGRFTISRDNAKNTVYFQMNSLKPEDTEVYYCNAFYTGRSAPDSWGQGTQVTVSS
- polyreactivity (PSR sort gate): high polyreactivity

Sequence: QVQLVESGGGLDQAGGSLRLSCAASGSTFYGYAMGWYRPAPGKERELVAGISSGDSTNYADSVKGRFTISRDNAKNTVYLQMNSLKPEDTAVYYCARDYSRHKGDYWGQGTQVTVSS
- polyreactivity (PSR sort gate): low polyreactivity

Sequence: QVQLVESGGGLVQAGGSLRLSCAASGRIFYRNAMGWYRQAPGKERELVAAITWRGGSTYYADSVKGRFTISRDNAKNTVYLQMNSLKPEDTAVYYCNTRYGRIHWKANWPEYGYWGQGTQVTVSS
- polyreactivity (PSR sort gate): low polyreactivity

Sequence: QVHLVESGGVLVQAGGSLRLSCAASGFILYFNAMGWYIQAPGKERELVAVNTFRSGSTYYADSVKGRFTISRDNAKNTVNLQMNSLKPEDTAVYYCNAQSVLLSLRVELREPHEYWGHGTQVTVSS
- polyreactivity (PSR sort gate): low polyreactivity

Sequence: QVQLVESGGGLVQAGGSLRLSCAASGFIFGYYAMGWYRPAPGNERELVAAIDWSDGSTYYADSVKGRFTISRDNAKNTVYLQMNSLKPEDTAVYYSAVDTYSQQAGDYEYWGQGTQVTVSS
- polyreactivity (PSR sort gate): low polyreactivity

Sequence: QVQLVESGGGLVQAGGSLRLSCAASGRTFRVYAMGWDRQAPGKERELVAAISGRGGSTYYADSVKGRFSISRDNAMNTVYLQMNSLKPEDTAVDYCAKSNPYLRLGEGNYWGQGTQVTVSS
- polyreactivity (PSR sort gate): high polyreactivity

Sequence: QVQLVESGGGLVQAGGSLRLSCAASGSILRYYAKGWYRQAPGKERELVASINWSGGSTYYADSVKGRFTISRDNAKNTVYLQMNSLKPEDTAVYYCAARRRSAEYNYWGQGTQVTVSS
- polyreactivity (PSR sort gate): high polyreactivity

Sequence: QVQLVESGGGLVQAGGSLRLSCAASGSTFDRYAMAWYRQAPGKERELVAAISKNGGRTYYADSVKGRFTISRDNAKNTVYLQMNSLKPEDTAVYYCAKDIIKYDYDYWGQGTQVTVSS
- polyreactivity (PSR sort gate): low polyreactivity

Sequence: QVQLEESGGGLVQAGGSLRLSCAASGSIFIANAMGWYRQAPGKERELVAVINWGDGSTYADSVKGRFTISRDNAKNTVYLQMNSLKPEDTAVYYCNAPDEVNDVRYDYWGQGTQVTVSS
- polyreactivity (PSR sort gate): low polyreactivity

Sequence: QVHLVESGGGLVQAGGSLRLSCAASGSIFFTYAMGWYRQAPGKETEWVAAISSGGSPYYADSVKGRFTISRDNANNTVYLQMNSLKPEDTEVYYCAARGYRLVPVDFSYWGQGTQVTVSS
- polyreactivity (PSR sort gate): low polyreactivity

Sequence: QVQLQESGGGQVQAGGSLRLSCAASGTIFLYAFMGWYRQAPGKERELVAAIDVGTTTNYADSVKGRFTISRDNAKNTVYLQMNSLKPEDTAVYYCAAPYVSWDYRYYYWGQGTQVTVSS
- polyreactivity (PSR sort gate): low polyreactivity

Sequence: QVQLVESGGGLVQAGGSLRLSCAASGSTFSYYAMGWYRQAPGKERELVAVISRGGSTNYADSVKGRFTISRDNAKNTVYLQMNSLKPEDTAVYYCAAYVLPWRGRGQTEYGYWGQGTQVTVSS
- polyreactivity (PSR sort gate): low polyreactivity

Sequence: QVQLVESGGGLVQAGGSLRLSCAASGRIFYPYAMGWYRQAPGKERELVAAITYSGGSTYYADSVKGRFTISRDNAKNTVYLQMNSLKPEDTAVYYCNAVQRGSFYLGKFGYWGQGTQVTVSS
- polyreactivity (PSR sort gate): high polyreactivity

Sequence: QVQLVESGGGLVQAGGSLRLSCAASGSTIADNAMGWYRQAPGKERELVAAITRSGVRTYYADSVKGRFTISRDTAKNTVYLQMNSLKPEDTAVYYCAKRTYPSRIYDYWGQGTQVTVSS
- polyreactivity (PSR sort gate): high polyreactivity

Sequence: QVQLVESGGGLVQAGGSLRLSCAASGSTFAFNAMGWYRQAPGKERELVASISGSGSSTYYADSVKGRFTISRDNAKNTVYLQMNSMKPEVTAVYYCDARVGARVSPPRRHGRFNYWGQGTQVTVSS
- polyreactivity (PSR sort gate): high polyreactivity

Sequence: QVQLQESGGGLVQAGGSLRLTCAASGYISYLQSMGLYRQAPVKERELVAGITLGTTTYNADSVKGRFTISPDNVQNTVYLQMNSLKPEYTAVYYCAVAVGHYPEFWYWGQGTQVTMSS
- polyreactivity (PSR sort gate): high polyreactivity

Sequence: QVQLVESGGGLVQAGGSLRLSCAASGRIFQWYAMGWYRQAPGKERELVAAIRNGGTTNYADSVKGRFTISRDNAKNTVYLQMNSLKPEDTAVYYCNADKYRTWVFQPRYPGGYWGQGTQVTVSS
- polyreactivity (PSR sort gate): low polyreactivity
